B1: mCh-HsC53 [human] / GST-ATG8A [Arabidopsis thaliana] (parent complex)
chain 1: MEDHQHVPIDIQTSKLLDWLVDRRHCSLKWQSLVLTIREKINAAIQDMPESEEIAQLLSGSYIHYFHCLRILDLLKGTEASTKNIFGRYSSQRMKDWQEIIALYEKDNTYLVELSSLLVRNVNYEIPSLKKQIAKCQQLQQEYSRKEEECQAGAAEMREQFYHSCKQYGITGENVRGELLALVKDLPSQLAEIGAAAQQSLGEAIDVYQASVGFVCESPTEQVLPMLRFVQKRGNSTVYEWRTGTEPSVVERPHLEELPEQVAEDAIDWGDFGVEAVSEGTDSGISAEAAGIDWGIFPESDSKDPGGDGIDWGDDAVALQITVLEAGTQAPEGVARGPDALTLLEYTETRNQFLDELMELEIFLAQRAVELSEEADVLSVSQFQLAPAILQGQTKEKMVTMVSVLEDLIGKLTSLQLQHLFMILASPRYVDRVTEFLQQKLKQSQLLALKKELMVQKQQEALEEQAALEPKLDLLLEKTKELQKLIEADISKRYSGRPVNLMGTSL
chain 2: MAKSSFKISNPLEARMSESSRIREKYPDRIPVIVEKAGQSDVPDIDKKKYLVPADLTVGQFVYVVRKRIKLGAEKAIFVFVKNTLPPTAALMSAIYEEHKDEDGFLYMTYSGENTFG

Variants of: B1
Assay: microscopy-based protein-protein interaction assay (on-bead binding, confocal); 1 μM C53 protein; glutathione-sepharose beads with GST-ATG8A; read off a plot

Row | Variant | response
1 | chain 1 MEDHQHVPIDIQTSKLLDWLVDRRHCSLKWQSLVLTIREKINAAIQDMPESEEIAQLLSGSYIHYFHCLRILDLLKGTEASTKNIFGRYSSQRMKDWQEIIALYEKDNTYLVELSSLLVRNVNYEIPSLKKQIAKCQQLQQEYSRKEEECQAGAAEMREQFYHSCKQYGITGENVRGELLALVKDLPSQLAEIGAAAQQSLGEAIDVYQASVGFVCESPTEQVLPMLRFVQKRGNSTVYEWRTGTEPSVVERPHLEELPEQVAEDAIDAGDFGVEAVSEGTDSGISAEAAGIDAGIFPESDSKDPGGDGIDAGDDAVALQITVLEAGTQAPEGVARGPDALTLLEYTETRNQFLDELMELEIFLAQRAVELSEEADVLSVSQFQLAPAILQGQTKEKMVTMVSVLEDLIGKLTSLQLQHLFMILASPRYVDRVTEFLQQKLKQSQLLALKKELMVQKQQEALEEQAALEPKLDLLLEKTKELQKLIEADISKRYSGRPVNLMGTSL [chain 1 W269A, chain 1 W294A, chain 1 W312A] | ~0.25 normalized fluorescence

Reference: PMC10183829 (2023)
